Assay results as given in patent US20230183331A1.

Biological target: IL-2 receptor (IL-2R) on primary pan T-cells from healthy donors (human) (UniProt P01589)
Test: cell-based or functional assay

Chain of IL-2 receptor (IL-2R) on primary pan T-cells from healthy donors (human) (P01589 22-272, chain 1 of 3): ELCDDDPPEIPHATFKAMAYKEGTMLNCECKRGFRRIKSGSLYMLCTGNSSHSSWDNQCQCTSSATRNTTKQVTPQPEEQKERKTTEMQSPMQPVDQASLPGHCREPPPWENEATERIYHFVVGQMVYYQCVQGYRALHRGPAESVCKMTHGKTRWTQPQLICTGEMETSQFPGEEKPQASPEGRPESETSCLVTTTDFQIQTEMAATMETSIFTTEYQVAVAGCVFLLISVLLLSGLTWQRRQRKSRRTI
Chain of IL-2 receptor (IL-2R) on primary pan T-cells from healthy donors (human) (P14784 27-551, chain 2 of 3, further chain): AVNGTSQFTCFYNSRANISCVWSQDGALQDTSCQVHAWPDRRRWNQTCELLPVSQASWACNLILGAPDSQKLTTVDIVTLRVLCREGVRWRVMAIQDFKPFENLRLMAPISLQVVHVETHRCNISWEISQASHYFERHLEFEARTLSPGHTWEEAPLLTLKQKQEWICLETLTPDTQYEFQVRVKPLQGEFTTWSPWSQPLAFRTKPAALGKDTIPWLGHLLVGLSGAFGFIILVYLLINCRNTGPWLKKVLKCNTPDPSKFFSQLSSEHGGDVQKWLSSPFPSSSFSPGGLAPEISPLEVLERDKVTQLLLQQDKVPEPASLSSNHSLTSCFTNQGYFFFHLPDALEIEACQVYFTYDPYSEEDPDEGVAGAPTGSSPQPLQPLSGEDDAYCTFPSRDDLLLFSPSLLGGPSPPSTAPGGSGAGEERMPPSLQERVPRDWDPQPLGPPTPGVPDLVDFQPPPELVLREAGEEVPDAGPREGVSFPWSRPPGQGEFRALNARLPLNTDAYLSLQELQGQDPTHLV
Chain of IL-2 receptor (IL-2R) on primary pan T-cells from healthy donors (human) (P31785 23-369, chain 3 of 3, further chain): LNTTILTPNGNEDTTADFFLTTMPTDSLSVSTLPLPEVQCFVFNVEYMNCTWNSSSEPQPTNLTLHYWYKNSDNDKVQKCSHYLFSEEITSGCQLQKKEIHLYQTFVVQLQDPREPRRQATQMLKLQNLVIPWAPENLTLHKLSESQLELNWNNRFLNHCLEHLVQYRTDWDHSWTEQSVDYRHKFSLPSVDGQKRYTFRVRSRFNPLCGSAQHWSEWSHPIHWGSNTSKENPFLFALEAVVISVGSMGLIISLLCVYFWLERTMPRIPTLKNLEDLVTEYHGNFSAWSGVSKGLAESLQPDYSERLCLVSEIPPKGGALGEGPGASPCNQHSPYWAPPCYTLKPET

- CD8 EC50 (nM), STAT5 phosphorylation: 9.07 nM
- CD8 naïve EC50 (nM), STAT5 phosphorylation: 477 nM
- Treg EC50 (nM), STAT5 phosphorylation: 0.019 nM
Substance: Aldesleukin (from UniProt P60568 22-153) (ligand)
